# B1: DNA primase (Geobacillus stearothermophilus), Q9X4D0 (parent)
# chain: MGHRIPEETIEAIRRGVDIVDVIGEYVQLKRQGRNYFGLCPFHGEKTPSFSVSPEKQIFHCFGCGAGGNAFTFLMDIEGIPFVEAAKRLAAKAGVDLSVYELDVRGRDDGQTDEAKAMTEAHALLKRFYHHLLVHTKEGQAALDYLQARGWTKETIDRFEIGYAPDAPDAAAKLLESHSFSLPVMEKAGLLTKKEDGRYVGRFRNRIMFPIHDHRGETVGFSGRLLGEGHPKYVNSPETPVFRKGAILYHFHAARVPIRKRQEALLVEGFADVISAAQAGIDYAIATMGTSLTEEQARILRPCDTITICYDGDRAGIEAAWAAAEQLSALGCRVKVASLPNGLDPDEYIRVYGGERFAGEAGCRRPLVAFKMAYLRRGKNLQHEGERLRYIDEALREIGKLSSPVEQDYYLRQLAEEFSLSLSALHEQLSRSQRERTKPREAPDGETARPMLAKKLLPAFQNAERLLLAHMMRSRDVALVVQERIGGRFNIEEHRALAAYIYAFYEEGHEADPGALISRIPGELQPLASDVSLLLIADDVSEQELEDYIRHVLNRPKWLMLKVKEQEKTEAERRKDFLTAARIAKEMIEMKKMLSSS
# partner: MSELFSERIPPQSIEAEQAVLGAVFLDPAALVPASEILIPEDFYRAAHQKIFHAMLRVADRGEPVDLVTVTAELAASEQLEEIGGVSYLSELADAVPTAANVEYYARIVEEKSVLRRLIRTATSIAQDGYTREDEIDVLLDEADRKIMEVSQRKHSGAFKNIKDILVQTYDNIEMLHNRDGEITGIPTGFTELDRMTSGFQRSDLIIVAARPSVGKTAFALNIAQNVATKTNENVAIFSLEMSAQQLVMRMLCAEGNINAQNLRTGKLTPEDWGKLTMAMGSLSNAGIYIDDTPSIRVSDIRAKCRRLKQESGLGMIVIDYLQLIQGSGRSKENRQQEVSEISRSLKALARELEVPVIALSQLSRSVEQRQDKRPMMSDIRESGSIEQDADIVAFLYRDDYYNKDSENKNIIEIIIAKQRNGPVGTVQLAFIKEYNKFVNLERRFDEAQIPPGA
# Variants of: B1
# Details: with dnab_geose dnaB
row,effect of a mutation on the interaction,Variant
1,decreasing interaction strength,MGHRIPEETIEAIRRGVDIVDVIGEYVQLKRQGRNYFGLCPFHGEKTPSFSVSPEKQIFHCFGCGAGGNAFTFLMDIEGIPFVEAAKRLAAKAGVDLSVYELDVRGRDDGQTDEAKAMTEAHALLKRFYHHLLVHTKEGQAALDYLQARGWTKETIDRFEIGYAPDAPDAAAKLLESHSFSLPVMEKAGLLTKKEDGRYVGRFRNRIMFPIHDHRGETVGFSGRLLGEGHPKYVNSPETPVFRKGAILYHFHAARVPIRKRQEALLVEGFADVISAAQAGIDYAIATMGTSLTEEQARILRPCDTITICYDGDRAGIEAAWAAAEQLSALGCRVKVASLPNGLDPDEYIRVYGGERFAGEAGCRRPLVAFKMAYLRRGKNLQHEGERLRYIDEALREIGKLSSPVEQDYYLRQLAEEFSLSLSALHEQLSRSQRERTKPREAPDGETARPMLAKKLLPAFQNAERLLLAHMMRSRDVALVVQERIGGRFNIEEHRALAAYIYAFYEEGHEADPGALISRIPGELQPLASDVSLLLIADDVSEQELEDAIRHVLNRPKWLMLKVKEQEKTEAERRKDFLTAARIAKEMIEMKKMLSSS [Y548A]

# Variants of: B1
# Details: with dnab_geose dnaB
# Remark: another data set of the same source
row,effect of a mutation on the interaction,Variant
1,decreasing interaction strength,MGHRIPEETIEAIRRGVDIVDVIGEYVQLKRQGRNYFGLCPFHGEKTPSFSVSPEKQIFHCFGCGAGGNAFTFLMDIEGIPFVEAAKRLAAKAGVDLSVYELDVRGRDDGQTDEAKAMTEAHALLKRFYHHLLVHTKEGQAALDYLQARGWTKETIDRFEIGYAPDAPDAAAKLLESHSFSLPVMEKAGLLTKKEDGRYVGRFRNRIMFPIHDHRGETVGFSGRLLGEGHPKYVNSPETPVFRKGAILYHFHAARVPIRKRQEALLVEGFADVISAAQAGIDYAIATMGTSLTEEQARILRPCDTITICYDGDRAGIEAAWAAAEQLSALGCRVKVASLPNGLDPDEYIRVYGGERFAGEAGCRRPLVAFKMAYLRRGKNLQHEGERLRYIDEALREIGKLSSPVEQDYYLRQLAEEFSLSLSALHEQLSRSQRERTKPREAPDGETARPMLAKKLLAAFQNAERLLLAHMMRSRDVALVVQERIGGRFNIEEHRALAAYIYAFYEEGHEADPGALISRIPGELQPLASDVSLLLIADDVSEQELEDYIRHVLNRPKWLMLKVKEQEKTEAERRKDFLTAARIAKEMIEMKKMLSSS [P458A]

# Reference: IntAct's records for PubMed 18366438
